Values belong to the binder of their own block, whether it stands above or below them. No end group written: not given here. TAMRA = carboxytetramethylrhodamine
Key:
[1] = biological target: T1, ^15N,^13C-labeled Sin3A PAH1 (mouse, UniProt Q60520 119-195); assay: NMR titration
T1 sequence (looked up): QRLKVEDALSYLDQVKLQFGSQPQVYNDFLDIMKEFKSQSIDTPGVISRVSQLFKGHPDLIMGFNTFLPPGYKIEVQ

[2] = biological target: T2, GST-tagged Sin3A PAH1 (mouse, UniProt Q60520 119-195); assay: fluorescence polarisation
T2 sequence (looked up): T1 sequence (looked up)

binding result [1]: binds
B1: Myt1L^193−214 SID peptide (released from MBP) (peptide, UniProt Q9UL68 193-214, looked up)
peptide: EYDNYDELVAKSLLNLGKIAED

Kd [2]: 6 ± 0.9 µM
B2: TAMRA-conjugated Myt1L^193−214 SID peptide (peptide, UniProt Q9UL68 193-214, looked up)
peptide: {TAMRA}-EYDNYDELVAKSLLNLGKIAED

— paper PMC8224932 (FEBS letters, 2020)
